# Results published in PMC5951830, “CO2-sensitive tRNA modification associated with human mitochondrial disease” (Nature Communications, 2018).
# B1: YRDC (Homo sapiens) (protein)
# chain: SVGLSEGPAGSRSGRLFRPPSPAPAAPGARLLRLPGSGAVQAASPERAGWTEALRAAVAELRAGAVVAVPTDTLYGLACAASCSAALRAVYRLKGRSEAKPLAVCLGRVADVYRYCRVRVPEGLLKDLLPGPVTLVMERSEELNKDLNPFTPLVGIRIPDHAFMQDLAQMFEGPLALTSANLSSQASSLNVEEFQDLWPQLSLVIDGGQIGDGQSPECRLGSTVVDLSVPGKFGIIRPGCALESTTAILQQKYGLLPSHASYL
# notes: recombinant from E. coli Rosetta(DE3), His6-SUMO tag removed
# How the values were obtained:
# purified protein [1] = substrate: O=C(O)O; assay: purified protein; settings: YRDC alone, Tricine-NaOH pH 8.5, 10 mM MgCl2, ATP, L-Thr, 37 °C, bicarbonate 10-80 mM
# purified protein [2] = substrate: Nc1ncnc2c1ncn2[C@@H]1O[C@H](COP(=O)(O)OP(=O)(O)OP(=O)(O)O)[C@@H](O)[C@H]1O; assay: purified protein; format: biochemical, Homo sapiens; settings: YRDC alone, Tricine-NaOH pH 8.5, 10 mM MgCl2, [14C]L-Thr, NaHCO3, 37 °C, ATP 0.1-0.8 mM
protein,measurement,setting,value
B1,Km,purified protein [1],13 mM
same,Km,purified protein [2],0.17 ± 0.22 mM
same,kcat,purified protein [2],(3.9 ± 2.23) × 10^-2 s^-1
